Results taken from publication PMC10957154.

Target: T1, DJ-1 (mouse (endogenous in mouse frontal cortex)), Q99LX0
T1 chain: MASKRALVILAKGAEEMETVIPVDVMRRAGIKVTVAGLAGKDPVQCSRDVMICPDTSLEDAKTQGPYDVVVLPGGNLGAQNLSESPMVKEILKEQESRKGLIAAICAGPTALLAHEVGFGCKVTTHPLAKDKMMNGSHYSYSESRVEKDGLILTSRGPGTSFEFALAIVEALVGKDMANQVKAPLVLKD
Assay: cross-linking
Conditions: remark: other sources report otherwise

B1: DJ-1, Q99LX0 1-189 (natural protein)
chain: T1 chain
For B1, the stoichiometry N was 2.
